Assay results reported in article PMC4754655 (2016).

Assays:
[1] = biological target: YU2 gp120, soluble monomer (HIV-1 isolate YU2 (clade B), UniProt P35961 32-498); assay: BLI
YU2 gp140-foldon trimer [2] = biological target: T1, YU2 gp140-foldon trimer (HIV-1 isolate YU2 (clade B) | ); assay: SPR
YU2 gp140-foldon trimer [3] = biological target: T1, YU2 gp140-foldon trimer; assay: BLI

Binder | Kd [1] [nM] | Kd (YU2 gp140-foldon trimer [2]) [nM] | Kd (YU2 gp140-foldon trimer [3]) [nM]
GEBT403, inferred germline (igL) reverted IgG (antibody, V domains shown) VH: QVQLVQSGAEVKKPGSSVKVSCKASGYTFTDYYMHWVRQAPGQGLEWMGEINPKTGGTNYAQKFQGRVTMTRDTSTSTAYMELSSLRSEDTAVYYCARGGQRLIPLRRFYFYYWGQGVLVTVSS VL: QSVLTQPPSVSGAPGQKVTISCTGSSSNIGGYDVHWYQQLPGMAPKLLIYDNNERPSGISDRFSGSKSATSASLAITGLQTEDEADYYCQSYDSSMNAWVFGGGTRLTVL | 11 |  | 
GEBT403, mature IgG (antibody, V domains shown) VH: EVQLVQSGAEVKKPGSSVKVSCKASGYTFTDYYMHWVRQAPGQGLEWMGEINPKTGGTNYAQKFQGRVTMTRDTSTSTAYMELSSLRSEDTAIYSCARGGQRLIPLRRFYFYYWGQGVLVTVSS VL: QSVLTQPPSVSGAPGQKVTISCTGSSSNIGGYDVHWYQQLPGMAPKLLIYDNNERPSGISDRFSGSKSGTSASLAITGLQTEDEADYYCQSYDSSMNAWVFGGGTRLTVL | 13 |  | 
GEBT403 mature Fab (Fab, V domains shown) VH: EVQLVQSGAEVKKPGSSVKVSCKASGYTFTDYYMHWVRQAPGQGLEWMGEINPKTGGTNYAQKFQGRVTMTRDTSTSTAYMELSSLRSEDTAIYSCARGGQRLIPLRRFYFYYWGQGVLVTVSS VL: QSVLTQPPSVSGAPGQKVTISCTGSSSNIGGYDVHWYQQLPGMAPKLLIYDNNERPSGISDRFSGSKSGTSASLAITGLQTEDEADYYCQSYDSSMNAWVFGGGTRLTVL |  | 7 | 5
GEBT403 igL-reverted Fab (Fab, V domains shown) VH: QVQLVQSGAEVKKPGSSVKVSCKASGYTFTDYYMHWVRQAPGQGLEWMGEINPKTGGTNYAQKFQGRVTMTRDTSTSTAYMELSSLRSEDTAVYYCARGGQRLIPLRRFYFYYWGQGVLVTVSS VL: QSVLTQPPSVSGAPGQKVTISCTGSSSNIGGYDVHWYQQLPGMAPKLLIYDNNERPSGISDRFSGSKSATSASLAITGLQTEDEADYYCQSYDSSMNAWVFGGGTRLTVL |  |  | 2
GEBT412, mature IgG (antibody, V domains shown) VH: QVQLVESGGGLVQPGGSLRLACAASGFIFSNHGMHWVRQAPGKGLEWVAVIWYDGSEKYYADSVKDRFTISRDNSKNMLYLQMNNLKLVDTAVYYCARRGCTGSGCYLYYYGLDSWGQGVVVTVSS VL: DIQMTQSPSSLSASVGDTVTITCRASQGISSHLNWFQQKPGKAPKLLIYAATTLQSGVPSRFSGSGSGTDFTLTISSLQPEDFATYYCLQHNFYPYSFGQGTKVEIK | 11 |  | 
GEBT391, mature IgG (antibody, V domains shown) VH: QVQLVESGGGLVQPGGSLRLSCAASGFTFSSYGMHWVRQAPGKGLEWVAVIWFDGSEKYYVDSVKDRFTISRDNSKNMLYLQMNNLKLDDTAVYYCARRGCTGSGCYLYYYALDSWGQGVVVTVSS VL: DIQMTQSPSSLSASVGDTVTITCRASQGISSYLNWFQQKPGKAPKLLIYAATTLQSGVPSRFSGSGSGTDFTLTISSLQPEDFATYYCLQHNFYPYSFGQGTKVEIK | 6 |  | 
GEBT412, inferred germline (igL) reverted IgG (antibody, V domains shown) VH: QVQLVESGGGLVQPGGSLRLSCAASGFTFSSYGMHWVRQAPGKGLEWVAVIWYDGSKKYYADSVKDRFTISRDNSKNMLYLQMNNLKLEDTAVYYCARRGCTGSGCYLYYYGLDSWGQGVVVTVSS VL: DIQMTQSPSSLSASVGDTVTITCRASQGISSYLNWFQQKPGKAPKLLIYAASSLESGVPSRFSGSGSGTEFTLTISSLQPEDFATYYCLQHNFYPYSFGQGTKVEIK | 104 |  | 
GEBT391, inferred germline (igL) reverted IgG (antibody, V domains shown) VH: EVQLVESGGGLVQPGGSLRLSCAASGFTFSSYGMHWVRQAPGKGLEWVAVIWYDGSKKYYADSVKDRFTISRDNSKNMLYLQMNNLKLEDTAVYYCARRGCTGSGCYLYYYALDSWGQGVVVTVSS VL: DIQMTQSPSSLSASVGDTVTITCRASQGISSYLNWFQQKPGKAPKLLIYAASSLESGVPSRFSGSGSGTEFTLTISSLQPEDFATYYCLQHNFYPYSFGQGTKVEIK | 118 |  | 
GEBT414, mature IgG (antibody, V domains shown) VH: EVQLVQSGAEVKRPGESLRISCKTSGYSFTGSWISWVRQMPGKGLDWMGNIYPGDSDTRYNPSFQGHVTISADKSISTTYLQWSSLKASDTATYYCAKGGGITIFGLLHYPLDSWGQGVVVTVSS VL: DIQMTQSPSSLSASVGDTVTITCRASQGINNWLAWYQQKPGKAPKLLIYKASSLQSGVPSRFSGSGSGTDFTLTISSLQSEDFATYYCQQYNSGPLTFGGGTKVEIK | 24 |  | 
GEBT414, inferred germline (igL) reverted IgG (antibody, V domains shown) VH: EVQLVQSGAEVKRPGESLRISCKTSGYSFTGSWISWVRQMPGKGLEWMGSIYPGDSDTRYNPSFQGHVTISADKSISTTYLQWSSLKASDTATYYCAKGGGITIFGLLHYPLDSWGQGVVVTVSS VL: DIQMTQSPASLSASVGDRVTITCQASQGISSWLAWYQQKPGKAPKLLLYKAPGLQSGVPSMFSGSGSGTEFTLTISSLQPEDFATYYCQQYNSGPLTFGGGTKVEIK | 63 |  | 
GEBT404, mature IgG (antibody, V domains shown) VH: EVQLVESGGGLAKPGGSLRLSCAASGFTFSNYWMYWVRQAPGKGLEWISAINSAGSRTYYPDSVKGRFTISRENAKNTLYLQMDSLRAEDTAVYYCAKGRIAIFGLVITYFDYWGQGVLVTVSS VL: DIQMTQSPSSLSASVGDRVTITCRASQGITNDLAWYQQKPGETPKLLIYDASSLQSGIPSRFSGSGSGTDFTLTISSLQPEDFATYYCQHYYSTPPTFGGGTKVEIK | 43 |  | 
GEBT404, inferred germline (igL) reverted IgG (antibody, V domains shown) VH: EVQLVESGGGLAKPGGSLRLSCAASGFTFSNYWMHWVRQAPGKGLEWISAINSAGSSTYYADSVKGRFTISRENAKNTLYLQMDGLRAEDTAVYYCAKGRIAIFGLVITYFDYWGQGVLVTVSS VL: DIQMTQSPSSLSASVGDRVTITCQASQGITNDLAWYQQKPGETPKLLIYEASSLQSGIPSRFSGSGSGTDFTLTISSLQSEDFATYYCQHYYSTPPTFGGGTKVEIK | 56 |  | 
